Results from patent publication US9402875B2, “Amidated dopamine neuron stimulating peptide restoration of mitochondrial activity” (University of Kentucky Research Foundation, priority 2006, dated 2016).

Tests used:
Erk1/2 = test: ERK1/2 activation by western blot; type: cell-based; conditions: DNSP-11 0.1 uM or 1 uM or GDNF 50 ng/ml for 20 minutes
Protocol: MN9D and B65 cell were cultured in DMEM; 11995 (containing pyridoxol HCl; Sigma, St. Louis, Mo.) supplemented with 10% fetal bovine serum (HyClone, Logan, Utah), 50 U/mL penicillin and streptomycin with DNSP-11 (0.1 uM or 1 uM) or GDNF (50 ng/ml) for 20 minutes. The cells were then solubilized in Triton-X-100/glycerol lysis buffer and subjected to electrophoresis and western blotting as partially described previously (Jiang et al., Mol Biol Cell 14:859-70 (2003)). To detect phosphorylated Erk (#4377 Cell Signaling) and ERK (#4696 Cell Signaling) by immunoblotting, the cells were directly lysed in the sample loading buffer. Secondary IRDye 700X and IRDye800 conjugated, fluorescent antibodies (Rockland Inc.) were used to detect signal with Odyssey v3.0 scanning software. Several blots were analyzed to determine the linear range of the fluorescence signals, and quantifications were performed using densitometry analysis.

GAPDH = GAPDH (Homo sapiens, UniProt P04406); test: Gel filtration analysis of interaction between GAPDH and GDNF; type: binding; conditions: equimolar solution, pre-equilibrated 1 h, Sephacryl S-200
Sequence of GAPDH (P04406 2-335 limits assumed, species assumed): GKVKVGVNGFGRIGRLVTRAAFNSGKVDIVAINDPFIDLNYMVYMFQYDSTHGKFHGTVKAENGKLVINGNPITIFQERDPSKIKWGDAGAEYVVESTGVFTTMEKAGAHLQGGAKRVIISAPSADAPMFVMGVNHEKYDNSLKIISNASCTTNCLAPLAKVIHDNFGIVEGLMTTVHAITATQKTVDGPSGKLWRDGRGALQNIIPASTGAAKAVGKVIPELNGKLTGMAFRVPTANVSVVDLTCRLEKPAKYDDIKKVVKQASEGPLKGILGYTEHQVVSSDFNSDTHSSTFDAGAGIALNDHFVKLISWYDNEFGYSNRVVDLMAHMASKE
Protocol: A gel filtration study was performed using a 120 mL Sephacryl S-200 column at a constant 1 mL/min flow rate. Individual 300 μM solutions of GAPDH (˜150 kDa; FIG. 14, dotted line) or GDNF (˜30 kDa; FIG. 14, dashed line) eluted at expected retention times for their sizes of 50 min (FIG. 14, star) and 64 min (FIG. 14, pound sign), respectively. When a pre-equilibrated (1 h), equimolar solution of GAPDH and GDNF was analyzed by gel filtration chromatography, two equally intense peaks were observed (FIG. 14, solid line) with retention times identical to the individual solutions.

[1] = test system: E14 SD rat embryo primary dopaminergic neurons from the ventral mesencephalon; type: cell-based
Protocol: DNSP-11 treatment of Mesencephalic Cells: Timed pregnant SD rats (Harlan) were used to obtain the ventral mesencephalon from E14 fetuses. The dissected tissue was collected in cold Neurobasal™ medium and rinsed twice with cold Dulbecco's PBS. The cells were chemically (TrypLE®) and mechanically dissociated to yield a single cell suspension. The solution was centrifuged at 169 g for 6 minutes and the pellet was resuspended in Dulbecco's Modified Eagle Medium (DMEM). Cells were plated in a 25 μL micro-island at a density of 4000 cells/μL on poly-D-lysine coated 24-well plates (Sigma). Following adherence, cells were supplemented with warm NEUROBASAL™ media containing 2 mM glutamine, 1×N2, and 100 units of penicillin/streptomycin. Neurotrophic compounds were added at each media addition, including initial plating and DIV 2. A dose response of the peptides (0.03 ng to 10 ng/mL) was added to a 24-well plate following media supplementation.
The neurotrophic effects of DNSP-11 were studied by comparing its effects to the well-known effects of GDNF on the maintenance of primary mesencephalic cell cultures from E14 SD rat embryos. E14 SD rat embryo primary dopaminergic neurons from the ventral mesencephalon were grown for 5 days in vitro and neurotrophic molecules were added at each media change, including initial plating and day 2. […] These effects were similar to those observed for GDNF in these cells, including an increase in the size of TH+ neurons, which was not observed for DNSP-11 (Table 4).
In Table 1, cell survival and morphological parameters were quantified for control (citrate buffer) and experimental (0.1 ng/ml GDNF or 0.1 ng/ml DNSP-11) conditions. For morphology, five fields per well (minimum of 15 cells/field; 3-4 independent experiments) were photographed at 20× magnification and quantified using a Bioquant Image Analysis System. […] Soma size was not increased by the addition of DNSP-11. A one-way ANOVA was used to test for significance among groups, followed by a Newman-Keuls post hoc analysis. Significance between control and experimental conditions was determined at *p<0.05 and **p<0.01.

MN9D dopaminergic cells [2] = test: TUNEL assay, protection against 6-OHDA toxicity; type: cell-based; conditions: 1 ng/mL for 1 hour before 100 μM 6-OHDA for 15 min; at 24 h
Protocol: (§1) MN9D Cell Cultures: The MN9D cell line has been described by Choi (1991) Brain Res. 552:67-76 and was a gift from Michael Zigmond. Cells were cultured in DMEM supplemented with 10% Fetal Bovine Serum (FBS, Hyclone), 50 U/mL penicillin and streptomycin. For experiments, the cells were plated on 24-well poly-D-lysine in DMEM with 1% (v/v) penicillin-streptomycin. The cells were grown at 37° C. in 5% CO2.
Terminal dUTP Nick-End Labeling (TUNEL) Assay in MN9D Cells: After treatment with DNSP-11, MN9D cells were fixed and labelled to assess degenerative nuclear changes as indicated by the extent of high-molecular weight DNA strand breaks. DNA fragmentation was detected by using steptavidin-horseradish peroxidise conjugate followed by the substrate diaminobenzidine (DAB) generating a colored precipitate. Ratios between apoptotic and total cells were determined (4 random fields/well; 4 wells/ group). Experiments were repeated 3 times.
To evaluate DNSP-11's neuroprotective properties, DNSP-11 was compared to GDNF in its protection against 6-OHDA-induced toxicity in the dopaminergic cell line, MN9D. MN9D dopaminergic cells were incubated for 1 hour with either citrate buffer (control), 1 ng/mL of DNSP-11 or GDNF prior to 100 μM 6-OHDA exposure for 15 min. […]

MN9D dopaminergic cells [3] = test: Caspase-3 activity assay, protection against 6-OHDA toxicity; type: cell-based; conditions: 1 ng/mL for 1 hour before 100 μM 6-OHDA for 15 min; at 3 h
Protocol: as §1
Caspase-3 Activity Assay in MN9D Cells: MN9D cells were plated to 100,000 cells/well. Cell cultures were exposed to DNSP-11 (1 ng/mL) or buffer for 1 hour prior to 15 min 100 μM 6-OHDA exposure. Caspase-3 activity was monitored after 3 hours by fluorescence (excitation/emission 496/520 nm) using the Enz Chek Caspase-3 kit. Protein levels of lysed cells were measured by BCA assay (BioRad) and normalized for every experiment. Data expressed as % control and repeated a minimum of 3 times.
To evaluate DNSP-11's neuroprotective properties, DNSP-11 was compared to GDNF in its protection against 6-OHDA-induced toxicity in the dopaminergic cell line, MN9D. MN9D dopaminergic cells were incubated for 1 hour with either citrate buffer (control), 1 ng/mL of DNSP-11 or GDNF prior to 100 μM 6-OHDA exposure for 15 min. Data are +SD, one-way ANOVA with Tukey's post hoc analysis, *p<0.05, **p<0.01, ***p<0.001 vs. control; #p<0.05, ##p<0.01, ###p<0.001 vs. 6-OHDA.

young and aged rats = conditions: Hebert et al. 1996, 1997, cited from earlier work

B1: GDNF: mature glial cell line-derived neurotrophic factor, homodimer of 32-42 kDa, comparator (protein, listed as Homo sapiens)
chain: SPDKQMAVLPRRERNRQAAAANPENSRGKGRRGQRGKNRGCVLTAIHLNVTDLGLGYETKEELIFRYCSGSCDAAETTYDKILKNLSRNRRLVSDKVGQACCRPIAFDDDLSFLDDNLVYHILRKHSAKRCGCI
modifications: homodimer
notes: mature glial cell line-derived neurotrophic factor, homodimer of 32-42 kDa, comparator
phosphorylation of Erk1/2 (ratio of phosphorylated to non-phosphorylated) (Erk1/2; B65 cells): elevated levels of activated Erk | phosphorylation of Erk1/2 (ratio of phosphorylated to non-phosphorylated) (Erk1/2; MN9D cells): elevated levels of activated Erk | interaction with GAPDH in solution (GAPDH): does not interact | Cell survival ([1]; 0.1 ng/ml, 5 days in vitro, control 100): *158 ± 12 | Average branches per neuron ([1]; 0.1 ng/ml, controls 3.8 ± 0.2 (GDNF), 3.1 ± 0.2 (DNSP-11)): **4.7 ± 0.2 | Soma size (um^2) ([1]; 0.1 ng/ml, controls 171 ± 4 (GDNF), 168 ± 3 (DNSP-11)): 177 ± 4 um^2 | Combined neurite length (um) ([1]; 0.1 ng/ml, controls 242 ± 12 (GDNF), 222 ± 11 (DNSP-11)): **310 ± 16 um | TH+ neuron counts ([1]; 0.03, 0.1, 1.0 and 10 ng/ml): significantly increase | percent of TUNEL positive cells (MN9D dopaminergic cells [2]): significant reduction | caspase-3 activity (MN9D dopaminergic cells [3]): significant reduction | augmentation of evoked release of dopamine (young and aged rats): over 100% | increase of basal levels of DOPAC (young and aged rats; young and aged rats): 20-25%
